Data from patent publication US20090325887A1 (BOARD OF TRUSTEES OF THE UNIVERSITY OF ILLINOIS, published 2009).

Legend:
[1] = target: Cav3.1 channel (α3.1 subunit); test: cell-based or functional assay
[2] = target: Cav1.2 channel (α1.2 subunit, with β2a); test: cell-based or functional assay

| inhibition of Cav3.1 current at 30 µM peptide [1] | Binder | inhibition of Cav1.2 current at 30 µM peptide [2] |
| --- | --- | --- |
| -3.5% | LTTAGAFA [γ4 TM1a peptide] | -2.5% |
|  | LLILAVGV [γ6 TM1a SCR peptide] | 3.2% |
| 5.5% | VGATLAVL [γ6 TM1b peptide] | 6.7% |
|  | VGLFFALA [γ1 TM1a T12GI16A peptide] | 27.5% |
|  | VTLFFILA [γ1 TM1a peptide] | 15.5% |
| 26.3% | LGLLFAFV [γ6 TM1a V45FI47F peptide] |  |
| 16.4% | LTLLVAIV [γ6 TM1a G42T peptide] |  |
| 15.8% | VGLTLAVL [γ6 TM1b A50L peptide] |  |
| 20.6% | FGFLVAIV [γ6 TM1a L41FL43F peptide] |  |
